The results in this text go back to patent publication US20230250193A1 (PROVIVA THERAPEUTICS HONG KONG, published 2023).

The target of the assay is T1, human FAPα (fibroblast activation protein-α) expressed on cells (human, UniProt Q12884 1-760).
T1 construct: also called cells expressing FAP
T1 sequence: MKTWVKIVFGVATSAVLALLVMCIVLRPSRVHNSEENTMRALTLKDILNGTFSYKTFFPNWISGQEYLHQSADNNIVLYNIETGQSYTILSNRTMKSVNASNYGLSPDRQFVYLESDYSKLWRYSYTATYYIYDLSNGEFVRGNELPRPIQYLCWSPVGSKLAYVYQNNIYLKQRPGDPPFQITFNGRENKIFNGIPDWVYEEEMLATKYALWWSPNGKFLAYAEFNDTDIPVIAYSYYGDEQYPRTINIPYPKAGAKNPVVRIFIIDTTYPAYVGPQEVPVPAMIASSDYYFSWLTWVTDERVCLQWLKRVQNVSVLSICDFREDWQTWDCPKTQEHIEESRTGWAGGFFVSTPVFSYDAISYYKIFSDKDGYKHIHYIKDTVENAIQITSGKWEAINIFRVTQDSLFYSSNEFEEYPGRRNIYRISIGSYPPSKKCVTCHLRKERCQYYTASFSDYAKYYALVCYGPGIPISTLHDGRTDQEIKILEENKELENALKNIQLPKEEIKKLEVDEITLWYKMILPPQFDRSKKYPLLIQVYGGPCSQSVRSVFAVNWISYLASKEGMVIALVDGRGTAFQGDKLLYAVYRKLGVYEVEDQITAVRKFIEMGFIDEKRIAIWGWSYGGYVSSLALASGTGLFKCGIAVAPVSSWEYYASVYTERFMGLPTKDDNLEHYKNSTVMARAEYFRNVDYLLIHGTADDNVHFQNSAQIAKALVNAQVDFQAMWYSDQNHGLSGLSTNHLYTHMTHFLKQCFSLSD
In words: flow cytometry on FAPα-expressing cells, PE-labeled anti-human IgG detection. On the procedure:
FACS analysis. FACS analysis was performed for purified antibodies. Binding of Expi293 expression supernatant or purified antibodies to FAPα and/or B7H3 expressing cells was determined by flow cytometry. lx […] were incubated for 1 hour at 4° C. with purified antibodies. After washing twice with cold FACS buffer (PBS containing 1% BSA and 0.1% sodium azide), cell surface bound antibody was detected by incubating the cells with phycoerythrin (PE)-labeled anti-human IgG antibody (Jackson Immuno, Cat #109-116-098) for 1 hour at 4° C. Cells were washed twice in FACS buffer and analyzed using Guava EasyCyte HT (Merck Millipore).
(A flow cytometer gives signals particle by particle.)

B1: P28832158 (antibody, human IgG1, kappa, V domains shown)
VH: QVQLVQSGAEVKKPGASVKVSCKASGYTFTMNIIHWVRQAPGQGLEWMGWIHPGSGAIKYAQKLQGRVTMTTDTSTSTAYMELRSLRSDDTAVYYCARHGGTGRGAMDYWGQGTLVTVSS
VL: EIVLTQSPGTLSLSPGERATLSCRASQSVSTSAYSYMHWYQQKPGQAPRLLIYLASNLESGIPDRFSGSGSGTDFTLTISRLEPEDFAVYYCQQSRELPYTFGQGTKLEIKR
notes: Produced in Expi293 cells; also called M-87_G1; VH6.32/VL7.00
Consider B1, for which the binding result was “binds”.
